Reference: publication PMC3163439 (Molecular cell, 2009)
Values belong to the molecule of their own block, whether it stands above or below them.

Assays:
BAX, in vitro translated [1] = target: BAX, in vitro translated (UniProt Q07813); assay: co-IP
BAX, in vitro translated [2] = target: BAX, in vitro translated (UniProt Q07813 1-192); assay: co-IP
Chain of BAX, in vitro translated (UniProt Q07813 1-192) (Q07813 whole entry): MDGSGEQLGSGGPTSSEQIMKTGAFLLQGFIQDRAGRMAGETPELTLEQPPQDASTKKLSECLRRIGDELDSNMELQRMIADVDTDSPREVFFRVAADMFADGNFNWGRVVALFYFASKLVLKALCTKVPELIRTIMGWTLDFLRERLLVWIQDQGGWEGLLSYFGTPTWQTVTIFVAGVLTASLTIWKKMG

Chain of BAX, in vitro translated (UniProt Q07813) (Q07813 whole entry): as above

stoichiometry N (BAX, in vitro translated [1]): 1
Molecule: truncated BID (tBID), in vitro translated (domain or fragment)

stoichiometry N (BAX, in vitro translated [2]): ~1
B1: BIM, in vitro translated (natural protein, UniProt O54918 1-196, looked up)
chain: MAKQPSDVSSECDREGGQLQPAERPPQLRPGAPTSLQTEPQGNPDGEGDRCPHGSPQGPLAPPASPGPFATRSPLFIFVRRSSLLSRSSSGYFSFDTDRSPAPMSCDKSTQTPSPPCQAFNHYLSAMASIRQSQEEPEDLRPEIRIAQELRRIGDEFNETYTRRVFANDYREAEDHPQMVILQLLRFIFRLVWRRH

stoichiometry N (BAX, in vitro translated [2]): ~1
B2: PUMA, in vitro translated (natural protein, UniProt Q99ML1 1-193, looked up)
chain: MARARQEGSSPEPVEGLARDSPRPFPLGRLMPSAVSCSLCEPGLPAAPAAPALLPAAYLCAPTAPPAVTAALGGPRWPGGHRSRPRGPRPDGPQPSLSPAQQHLESPVPSAPEALAGGPTQAAPGVRVEEEEWAREIGAQLRRMADDLNAQYERRRQEEQHRHRPSPWRVMYNLFMGLLPLPRDPGAPEMEPN
